Measured values reported in US20210309732A1 (ELIXIRON IMMUNOTHERAPEUTICS HONG KONG, published 2021).

Target: T1, recombinant human GM-CSF (human, UniProt P04141 18-144)
T1 construct: also called rhGM-CSF; CSF2
Assay: ELISA on coated rhGM-CSF, UBA relative to 1D2
Outline: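 Antibody clones carrying SDR point mutants in VH or VL, each paired with the wild-type chain, were expressed in HEK293 cells. Culture media diluted 1:12000 were bound to plates coated with rhGM-CSF at 1 μg/mL for 1 h at room temperature. Detection used HRP anti-human antibody and Amplex Red fluorescence (Ex530/Em590), with UBA = fluorescence signal/dilution factor.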

T1 sequence (P04141 18-144 limits assumed): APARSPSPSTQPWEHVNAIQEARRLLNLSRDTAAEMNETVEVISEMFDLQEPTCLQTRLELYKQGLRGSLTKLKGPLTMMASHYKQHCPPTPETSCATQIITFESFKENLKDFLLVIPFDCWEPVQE

Binder	binding affinity % of 1D2
1D2 SDR mutant LV32G (antibody, IgG1, V domains shown, also called X8 G) VH: QVQLVQSGAEVKKPGASVKVSCEASGYTFTDKYLHWVRQAPGQGLEWMAWINPKSGGTFYAQNFKGRVTVTRDTSINTAYLELTSLRLDDTSTYYCARGRDYYDQGAADLWGQGTMVTVSS VL: DIQLTQSPSSLSASVGDRVTITCRASQGINSGLAWYQQKPGKAPKLLLYAASKLESGVPSRFSGSGSGTDYTLTISSLQPEDFGTYYCQQYYSPVRTFGQGTKVEIKR	297%
1D2 SDR mutant LV32H (antibody, IgG1, V domains shown, also called X8 H) VH: QVQLVQSGAEVKKPGASVKVSCEASGYTFTDKYLHWVRQAPGQGLEWMAWINPKSGGTFYAQNFKGRVTVTRDTSINTAYLELTSLRLDDTSTYYCARGRDYYDQGAADLWGQGTMVTVSS VL: DIQLTQSPSSLSASVGDRVTITCRASQGINSHLAWYQQKPGKAPKLLLYAASKLESGVPSRFSGSGSGTDYTLTISSLQPEDFGTYYCQQYYSPVRTFGQGTKVEIKR	128%
1D2 SDR mutant HY103Q (antibody, IgG1, V domains shown, also called X6 Q) VH: QVQLVQSGAEVKKPGASVKVSCEASGYTFTDKYLHWVRQAPGQGLEWMAWINPKSGGTFYAQNFKGRVTVTRDTSINTAYLELTSLRLDDTSTYYCARGRDYQDQGAADLWGQGTMVTVSS VL: DIQLTQSPSSLSASVGDRVTITCRASQGINSVLAWYQQKPGKAPKLLLYAASKLESGVPSRFSGSGSGTDYTLTISSLQPEDFGTYYCQQYYSPVRTFGQGTKVEIKR	74%
1D2 SDR mutant HY103H (antibody, IgG1, V domains shown, also called X6 H) VH: QVQLVQSGAEVKKPGASVKVSCEASGYTFTDKYLHWVRQAPGQGLEWMAWINPKSGGTFYAQNFKGRVTVTRDTSINTAYLELTSLRLDDTSTYYCARGRDYHDQGAADLWGQGTMVTVSS VL: DIQLTQSPSSLSASVGDRVTITCRASQGINSVLAWYQQKPGKAPKLLLYAASKLESGVPSRFSGSGSGTDYTLTISSLQPEDFGTYYCQQYYSPVRTFGQGTKVEIKR	109%
1D2 SDR mutant LV32F (antibody, IgG1, V domains shown, also called X8 F) VH: QVQLVQSGAEVKKPGASVKVSCEASGYTFTDKYLHWVRQAPGQGLEWMAWINPKSGGTFYAQNFKGRVTVTRDTSINTAYLELTSLRLDDTSTYYCARGRDYYDQGAADLWGQGTMVTVSS VL: DIQLTQSPSSLSASVGDRVTITCRASQGINSFLAWYQQKPGKAPKLLLYAASKLESGVPSRFSGSGSGTDYTLTISSLQPEDFGTYYCQQYYSPVRTFGQGTKVEIKR	109%
1D2 SDR mutant LP94C (antibody, IgG1, V domains shown, also called X9 C) VH: QVQLVQSGAEVKKPGASVKVSCEASGYTFTDKYLHWVRQAPGQGLEWMAWINPKSGGTFYAQNFKGRVTVTRDTSINTAYLELTSLRLDDTSTYYCARGRDYYDQGAADLWGQGTMVTVSS VL: DIQLTQSPSSLSASVGDRVTITCRASQGINSVLAWYQQKPGKAPKLLLYAASKLESGVPSRFSGSGSGTDYTLTISSLQPEDFGTYYCQQYYSCVRTFGQGTKVEIKR	253%
1D2 SDR mutant HY103K (antibody, IgG1, V domains shown, also called X6 K) VH: QVQLVQSGAEVKKPGASVKVSCEASGYTFTDKYLHWVRQAPGQGLEWMAWINPKSGGTFYAQNFKGRVTVTRDTSINTAYLELTSLRLDDTSTYYCARGRDYKDQGAADLWGQGTMVTVSS VL: DIQLTQSPSSLSASVGDRVTITCRASQGINSVLAWYQQKPGKAPKLLLYAASKLESGVPSRFSGSGSGTDYTLTISSLQPEDFGTYYCQQYYSPVRTFGQGTKVEIKR	143%
1D2 SDR mutant LV32E (antibody, IgG1, V domains shown, also called X8 E) VH: QVQLVQSGAEVKKPGASVKVSCEASGYTFTDKYLHWVRQAPGQGLEWMAWINPKSGGTFYAQNFKGRVTVTRDTSINTAYLELTSLRLDDTSTYYCARGRDYYDQGAADLWGQGTMVTVSS VL: DIQLTQSPSSLSASVGDRVTITCRASQGINSELAWYQQKPGKAPKLLLYAASKLESGVPSRFSGSGSGTDYTLTISSLQPEDFGTYYCQQYYSPVRTFGQGTKVEIKR	110%
1D2 SDR mutant HY103S (antibody, IgG1, V domains shown, also called X6 S) VH: QVQLVQSGAEVKKPGASVKVSCEASGYTFTDKYLHWVRQAPGQGLEWMAWINPKSGGTFYAQNFKGRVTVTRDTSINTAYLELTSLRLDDTSTYYCARGRDYSDQGAADLWGQGTMVTVSS VL: DIQLTQSPSSLSASVGDRVTITCRASQGINSVLAWYQQKPGKAPKLLLYAASKLESGVPSRFSGSGSGTDYTLTISSLQPEDFGTYYCQQYYSPVRTFGQGTKVEIKR	85%
1D2 SDR mutant HY103P (antibody, IgG1, V domains shown, also called X6 P) VH: QVQLVQSGAEVKKPGASVKVSCEASGYTFTDKYLHWVRQAPGQGLEWMAWINPKSGGTFYAQNFKGRVTVTRDTSINTAYLELTSLRLDDTSTYYCARGRDYPDQGAADLWGQGTMVTVSS VL: DIQLTQSPSSLSASVGDRVTITCRASQGINSVLAWYQQKPGKAPKLLLYAASKLESGVPSRFSGSGSGTDYTLTISSLQPEDFGTYYCQQYYSPVRTFGQGTKVEIKR	141%

Further lines, results first:

binding affinity % of 1D2	Binder
134%	1D2 SDR mutant HY103D (antibody, IgG1, V domains shown, also called X6 D) VH: QVQLVQSGAEVKKPGASVKVSCEASGYTFTDKYLHWVRQAPGQGLEWMAWINPKSGGTFYAQNFKGRVTVTRDTSINTAYLELTSLRLDDTSTYYCARGRDYDDQGAADLWGQGTMVTVSS VL: DIQLTQSPSSLSASVGDRVTITCRASQGINSVLAWYQQKPGKAPKLLLYAASKLESGVPSRFSGSGSGTDYTLTISSLQPEDFGTYYCQQYYSPVRTFGQGTKVEIKR
104%	1D2 SDR mutant HY103T (antibody, IgG1, V domains shown, also called X6 T) VH: QVQLVQSGAEVKKPGASVKVSCEASGYTFTDKYLHWVRQAPGQGLEWMAWINPKSGGTFYAQNFKGRVTVTRDTSINTAYLELTSLRLDDTSTYYCARGRDYTDQGAADLWGQGTMVTVSS VL: DIQLTQSPSSLSASVGDRVTITCRASQGINSVLAWYQQKPGKAPKLLLYAASKLESGVPSRFSGSGSGTDYTLTISSLQPEDFGTYYCQQYYSPVRTFGQGTKVEIKR
139%	1D2 SDR mutant HY103W (antibody, IgG1, V domains shown, also called X6 W) VH: QVQLVQSGAEVKKPGASVKVSCEASGYTFTDKYLHWVRQAPGQGLEWMAWINPKSGGTFYAQNFKGRVTVTRDTSINTAYLELTSLRLDDTSTYYCARGRDYWDQGAADLWGQGTMVTVSS VL: DIQLTQSPSSLSASVGDRVTITCRASQGINSVLAWYQQKPGKAPKLLLYAASKLESGVPSRFSGSGSGTDYTLTISSLQPEDFGTYYCQQYYSPVRTFGQGTKVEIKR
146%	1D2 SDR mutant LP94R (antibody, IgG1, V domains shown, also called X9 R) VH: QVQLVQSGAEVKKPGASVKVSCEASGYTFTDKYLHWVRQAPGQGLEWMAWINPKSGGTFYAQNFKGRVTVTRDTSINTAYLELTSLRLDDTSTYYCARGRDYYDQGAADLWGQGTMVTVSS VL: DIQLTQSPSSLSASVGDRVTITCRASQGINSVLAWYQQKPGKAPKLLLYAASKLESGVPSRFSGSGSGTDYTLTISSLQPEDFGTYYCQQYYSRVRTFGQGTKVEIKR
88%	1D2 SDR mutant HY103V (antibody, IgG1, V domains shown, also called X6 V) VH: QVQLVQSGAEVKKPGASVKVSCEASGYTFTDKYLHWVRQAPGQGLEWMAWINPKSGGTFYAQNFKGRVTVTRDTSINTAYLELTSLRLDDTSTYYCARGRDYVDQGAADLWGQGTMVTVSS VL: DIQLTQSPSSLSASVGDRVTITCRASQGINSVLAWYQQKPGKAPKLLLYAASKLESGVPSRFSGSGSGTDYTLTISSLQPEDFGTYYCQQYYSPVRTFGQGTKVEIKR
81%	1D2 SDR mutant HY103F (antibody, IgG1, V domains shown, also called X6 F) VH: QVQLVQSGAEVKKPGASVKVSCEASGYTFTDKYLHWVRQAPGQGLEWMAWINPKSGGTFYAQNFKGRVTVTRDTSINTAYLELTSLRLDDTSTYYCARGRDYFDQGAADLWGQGTMVTVSS VL: DIQLTQSPSSLSASVGDRVTITCRASQGINSVLAWYQQKPGKAPKLLLYAASKLESGVPSRFSGSGSGTDYTLTISSLQPEDFGTYYCQQYYSPVRTFGQGTKVEIKR
138%	1D2 SDR mutant HY103G (antibody, IgG1, V domains shown, also called X6 G) VH: QVQLVQSGAEVKKPGASVKVSCEASGYTFTDKYLHWVRQAPGQGLEWMAWINPKSGGTFYAQNFKGRVTVTRDTSINTAYLELTSLRLDDTSTYYCARGRDYGDQGAADLWGQGTMVTVSS VL: DIQLTQSPSSLSASVGDRVTITCRASQGINSVLAWYQQKPGKAPKLLLYAASKLESGVPSRFSGSGSGTDYTLTISSLQPEDFGTYYCQQYYSPVRTFGQGTKVEIKR
167%	1D2 SDR mutant LV32L (antibody, IgG1, V domains shown, also called X8 L) VH: QVQLVQSGAEVKKPGASVKVSCEASGYTFTDKYLHWVRQAPGQGLEWMAWINPKSGGTFYAQNFKGRVTVTRDTSINTAYLELTSLRLDDTSTYYCARGRDYYDQGAADLWGQGTMVTVSS VL: DIQLTQSPSSLSASVGDRVTITCRASQGINSLLAWYQQKPGKAPKLLLYAASKLESGVPSRFSGSGSGTDYTLTISSLQPEDFGTYYCQQYYSPVRTFGQGTKVEIKR
67%	1D2 SDR mutant HY103L (antibody, IgG1, V domains shown, also called X6 L) VH: QVQLVQSGAEVKKPGASVKVSCEASGYTFTDKYLHWVRQAPGQGLEWMAWINPKSGGTFYAQNFKGRVTVTRDTSINTAYLELTSLRLDDTSTYYCARGRDYLDQGAADLWGQGTMVTVSS VL: DIQLTQSPSSLSASVGDRVTITCRASQGINSVLAWYQQKPGKAPKLLLYAASKLESGVPSRFSGSGSGTDYTLTISSLQPEDFGTYYCQQYYSPVRTFGQGTKVEIKR
94%	1D2 SDR mutant HY103M (antibody, IgG1, V domains shown, also called X6 M) VH: QVQLVQSGAEVKKPGASVKVSCEASGYTFTDKYLHWVRQAPGQGLEWMAWINPKSGGTFYAQNFKGRVTVTRDTSINTAYLELTSLRLDDTSTYYCARGRDYMDQGAADLWGQGTMVTVSS VL: DIQLTQSPSSLSASVGDRVTITCRASQGINSVLAWYQQKPGKAPKLLLYAASKLESGVPSRFSGSGSGTDYTLTISSLQPEDFGTYYCQQYYSPVRTFGQGTKVEIKR
